The text below walks through data of article PMC2936869, “Secreted fungal sulfhydryl oxidases: sequence analysis and characterisation of a representative flavin-dependent enzyme from Aspergillus oryzae” (BMC Biochemistry, 2010).

For series [1], the target named is T1, AoSOX1 (Aspergillus oryzae, UniProt Q2UA33).
T1 construct: gene AO090102000564; secreted full-length protein, 384 aa including predicted 19-residue signal peptide (removed); C-terminal His6 tag added but apparently cleaved off by host protease; expressed in Trichoderma reesei; N-glycosylated; MW 43959 by MS
T1 sequence (Q2UA33 20-384): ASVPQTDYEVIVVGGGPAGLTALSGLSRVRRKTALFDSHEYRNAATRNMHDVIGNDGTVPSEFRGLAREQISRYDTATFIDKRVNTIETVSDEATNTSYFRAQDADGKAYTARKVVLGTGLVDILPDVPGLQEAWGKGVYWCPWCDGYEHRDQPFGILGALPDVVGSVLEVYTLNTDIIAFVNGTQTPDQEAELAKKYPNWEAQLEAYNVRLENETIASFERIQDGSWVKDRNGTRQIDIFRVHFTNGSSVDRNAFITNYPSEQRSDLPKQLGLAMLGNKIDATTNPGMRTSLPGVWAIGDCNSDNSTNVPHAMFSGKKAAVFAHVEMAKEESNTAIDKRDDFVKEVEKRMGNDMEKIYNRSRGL
The experiment in a line: UV/visible absorption; cofactor released by thermal and chemical denaturation. The settings on record: non-covalently bound cofactor; 20 mM Tris-HCl pH 7.0, 25 °C. The format is binding.

Substrate in series [2]: N[C@@H](CS)C(=O)O
The experiment in a line: initial rates, Michaelis-Menten (HVA-peroxidase coupled assay, the paper's general assay). Type of series: biochemical, Aspergillus oryzae. Conditions: co-substrate O2, general assay in 50 mM potassium phosphate, 0.3 mM EDTA, pH 7.5. The source says: (§1) initial rates, Michaelis-Menten (HVA-peroxidase coupled assay, the paper's general assay) on AoSOX1

Substrate in series [3]: N[C@H](CS)C(=O)O
Described as above. Conditions: co-substrate O2, general assay in 50 mM potassium phosphate, 0.3 mM EDTA, pH 7.5. Type of series: biochemical, Aspergillus oryzae.
Source text: as §1

Substrate in series [4]: OCCS
The description is as above. The format is biochemical, Aspergillus oryzae. The settings on record: co-substrate O2, general assay in 50 mM potassium phosphate, 0.3 mM EDTA, pH 7.5.
Source text: as §1

Regarding `Cc1cc2nc3c(=O)[nH]c(=O)nc-3n(C[C@H](O)[C@H](O)[C@H](O)COP(=O)(O)OP(=O)(O)OC[C@H]3O[C@@H](n4cnc5c(N)ncnc54)[C@H](O)[C@@H]3O)c2cc1C` [FAD], the “UV/visible absorption; cofactor released by thermal and chemical denaturation” value in series [1] is on record as “The cofactor was spectrophotometrically identified to be FAD after the cofactor was released”.

B1: AoSOX1 (Aspergillus oryzae RIB40) (protein)
chain: T1 sequence (Q2UA33 20-384)
notes: secreted full-length protein, 384 aa including predicted 19-residue signal peptide (removed); C-terminal His6 tag added but apparently cleaved off by host protease; expressed in Trichoderma reesei; N-glycosylated; MW 43959 by MS
One may read the Km as the substrate concentration at which the rate is half of its maximum. As usually defined, the kcat is the number of substrate molecules converted per active site and unit of time at saturation. Turning to B1, in series [2], the Michaelis-Menten constant (Km) was found to be 6.11 ± 0.13 mM and the Vmax/Km amounted to 21800 min⁻¹. Also, in series [3], the Km was 1.55 ± 0.03 mM, the Vmax/Km stood at 9780 min⁻¹ and the kcat came out at 5950 s⁻¹. In addition, in series [4], the Km is 9.73 ± 0.08 mM and the Vmax/Km came out at 13100 min⁻¹.
